Substrate in data set [1]: O=C(OC[C@H]1O[C@@H](OC(=O)c2cc(O)c(O)c(O)c2)[C@H](OC(=O)c2cc(O)c(O)c(O)c2)[C@@H](OC(=O)c2cc(O)c(O)c(O)c2)[C@@H]1OC(=O)c1cc(O)c(O)c(O)c1)c1cc(O)c(O)c(O)c1
The experiment in a line: HPLC galloyltransferase assay, Lineweaver-Burk. The data set is classed as biochemical, Camellia sinensis. To be noted: 1.0 mM EGC as acceptor, potassium phosphate pH 6.0, 30 °C.

Substrate in data set [2]: Oc1cc(O)c2c(c1)O[C@H](c1ccc(O)c(O)c1)[C@H](O)C2
The experiment in a line: HPLC galloyltransferase assay, Lineweaver-Burk. The data set is classed as biochemical, Camellia sinensis. To be noted: 0.4 mM PGG as donor, potassium phosphate pH 6.0, 30 °C.

Substrate in the data set “purified protein”: Oc1cc(O)c2c(c1)O[C@H](c1cc(O)c(O)c(O)c1)[C@H](O)C2
The experiment in a line: purified protein. To be noted: 0.4 mM PGG as donor, potassium phosphate pH 6.0, 30 °C.

B1: CsSCPL13-IA (Camellia sinensis var. sinensis) (protein)
chain: MVQVEAIAASQKQLLQKPSCAWIRWVQNHLLLQLLLAQPVLGGQIVKYLPGFDGELPFKLETGQLKSDDGFVVDFDRYISVDDSELFYYFIESEGNPQEDPLFLWLTGGPGCTSFSGLLYEVGPMEYDIDNYTGGLPKLKYYPYARTKTASMIFLDAPVGTGFSYARTPGGWPTSDTKSAEQSYQFLRKWLVEHPQFLSVQLFVGGDSYAGLAVPLITKKIIDGNKEKAEPYMNIKGYLVGCPGTDSVIDGNSRVDFAHRMALISDEIYENAKRSCNENYINVDPANTACITAMGAVQKCLEDLSDKDILKPKCDLSSQDHPEGPDRRFLKEGSSEFLLSPSTFPKSWCTTLKLTHNSIWANDDGVQEALHVRKGTVPRWERCNNSLSYTKDVSSVIAVHKELSRSSLEVLVESGDHDISVPYMGTLKWIKSLNLTLVDDWRPWFVDNQVAGYTMKYSEEHGYHLTFATIKGAGHPAPEYYRRECYCLFDRWINYNPV
notes: full length, His-tag (pDEST17); E. coli; nickel resin, partially purified; 498 residues, 56 kD
With B1, in data set [1], the Km (usually the concentration of substrate that gives half-maximal velocity) was found to be 10.43 ± 1.25 µM; the Vmax (as a rule, the rate approached at saturating substrate) came to 3.67 µmol/min/mg; the kcat (commonly the maximal rate divided by the concentration of active sites) was 61 ± 8.82 s⁻¹; the kcat/Km (usually the turnover number divided by the Michaelis constant) stood at 5.85e+06 ± 840000 M⁻¹ s⁻¹. For the same protein, in data set [2], the Km turned out to be 160.41 ± 21.2 µM, the Vmax came out at 37 µmol/min/mg, the kcat is 617 ± 62.5 s⁻¹ and the kcat/Km turned out to be 3.85e+06 ± 420000 M⁻¹ s⁻¹. For the same protein, in “purified protein”, the Michaelis-Menten constant (Km) came to 49.73 ± 8.36 µM, the Vmax amounted to 20.4 µmol/min/mg, the kcat came out at 340 s⁻¹ and the kcat/Km came out at 6.84e+06 M⁻¹ s⁻¹.

B2: CsSCPL14-IA (Camellia sinensis var. sinensis) (protein)
chain: SVDDSELFYYFIESEGNPQEDPLFLWLTGGPGCTSFSGLLYEVGPMEYDIDNYTGGLPKLKYYPYARTKTASMIFLDAPVGTGFSYARTPGGWPTSDTKSAEQSYQFLRKWLVEHPQFLSVQLFVGGDSYAGLTVPLITKKIIDGNKEKAKPYMNIKGYLVGCPGTDSVIDGNSRVDFAHRMALISDEIYENAKRSCNENYINVDPANTACITAMGAIQKCLKDLSDKDILKPKCDLSSQDHPEGPDRRFLKEGSSEFLLSPSTFPKPWCTTLKLTHNSIWANDDGVQEALHVRKGTVPRWERCNNSLSYTQDVLSVIAVHKELSRSSLEVLVERFFIFFLLLPAANRPSLPSRPPDNLTHHS
notes: N-terminal 50 residues (transmembrane region) deleted, Met inserted; His-tag (pDEST17); E. coli; nickel resin, partially purified; full protein 413 residues, 46 kD
For the protein B2, in data set [1], the Km was determined as 20.81 ± 3.51 µM, the Vmax was 10.6 µmol/min/mg, the kcat turned out to be 177 ± 22.8 s⁻¹ and the kcat/Km was 8.52e+06 ± 1.38e+06 M⁻¹ s⁻¹. In data set [2], the Km worked out at 64.28 ± 0.81 µM, the Vmax was 20 µmol/min/mg, the kcat worked out at 333 ± 35.2 s⁻¹ and the kcat/Km was determined as 5.19e+06 ± 480000 M⁻¹ s⁻¹. Moreover, in the data set “purified protein”, the Km was 103.38 ± 15.63 µM, the Vmax came to 62.5 µmol/min/mg, the kcat was determined as 1040 s⁻¹ and the kcat/Km came out at 1.01e+07 M⁻¹ s⁻¹.

B3: CsSCPL11-IA (Camellia sinensis var. sinensis) (protein)
chain: ELPFKLETGYALIYIRVNESELFYYFIESQGNPQEDPIFLWLPGGPGCSSFHELVYGFGMVKILIVKTASIIFLDAPVGTGFSYSRTADGWPTSDSKSAEQSYQFLREWFDEHPQYLAVQLFVGKGNKDGVKPFMNLKGYLLGSPRTDSVIDENSKVVFAHRMALISDEIYENAKTGCNDTYVSIDPANTACIVALGNIKTCIKDLFRNDILEPKCVFATPDPGEEPAARRSLEEGPSDFLLSPPMIPNLWCRNFNYVLSYIWSNDDTVQEVLHVRKGSVLNWERCNKSLSYTKDILTVVPVHEELKELGLEVLVETGDRDMVVPFVGTVKWIKSLNLTVVNDWRPWFVDGQVAGYTIKYSEHGYRLTYATVKGAGHTAPEYYRMECYYMFDRWIHYYPI
notes: N-terminal 50 residues (transmembrane region) deleted, Met inserted; His-tag (pDEST17); E. coli; nickel resin, partially purified; full protein 450 residues, 51 kD
Take B3: in data set [1], the Km worked out at 13.34 ± 1.78 µM, the maximum rate (Vmax) was found to be 4.05 µmol/min/mg, the kcat amounted to 67.5 ± 7.34 s⁻¹ and the kcat/Km worked out at 5.06e+06 ± 970000 M⁻¹ s⁻¹. For the same protein, in data set [2], the Km was found to be 85.39 ± 10.62 µM, the Vmax amounted to 16.1 µmol/min/mg, the kcat came to 269 ± 22.8 s⁻¹ and the kcat/Km came out at 3.14e+06 ± 640000 M⁻¹ s⁻¹. In the data set “purified protein”, the Km worked out at 40.67 ± 5.56 µM, the maximum rate (Vmax) amounted to 13.2 µmol/min/mg, the kcat was found to be 219 s⁻¹ and the kcat/Km is 5.39e+06 M⁻¹ s⁻¹.

Values taken from publication PMC7330524, “Genome-Wide Analysis of Serine Carboxypeptidase-Like Acyltransferase Gene Family for Evolution and Characterization of Enzymes Involved in the Biosynthesis of Galloylated Catechins in the Tea Plant (Camellia sinensis)” (Frontiers in Plant Science, 2020).
